From patent US20200368208, “Protein Translation Inhibitors and Uses Thereof” (University of Baltimore, Maryland, published 2020)

T1: hnRNP A18 (CIRP), full length, GST fusion (UniProt Q14011 Q14011:1-172)
T1 sequence: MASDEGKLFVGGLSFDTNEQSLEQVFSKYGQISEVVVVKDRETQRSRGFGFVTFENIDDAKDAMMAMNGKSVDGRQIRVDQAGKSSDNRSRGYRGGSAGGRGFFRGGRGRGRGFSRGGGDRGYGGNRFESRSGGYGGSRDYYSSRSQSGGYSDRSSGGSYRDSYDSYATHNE

T2: hnRNP A18 (CIRP), full length, His-tagged (UniProt Q14011 Q14011:1-172)
T2 sequence: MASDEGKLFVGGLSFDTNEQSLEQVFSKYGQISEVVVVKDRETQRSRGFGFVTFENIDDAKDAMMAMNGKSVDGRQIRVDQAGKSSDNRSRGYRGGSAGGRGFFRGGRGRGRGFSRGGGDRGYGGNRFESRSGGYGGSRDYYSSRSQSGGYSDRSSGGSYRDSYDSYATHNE

B1: hnRNP A18 motif 1 fluorescein (ssRNA)
RNA: GCAGAUCCAGGGUGGGAUUUUCUUGAGGAAGUUACAAAUAAGCUUGUUACA
B2: hnRNP A18 motif 1 biotin (ssRNA)
RNA: GCAGAUCCAGGGUGGGAUUUUCUUGAGGAAGUUACAAAUAAGCUUGUUACA

Assays:
[1] = molecular target: T1, hnRNP A18 (CIRP), full length, GST …; experiment: FP; 25 C, 30 min; binding competed by small molecules (compound 1 IC50 6.4 uM; compounds 5, 2, 3, 4 IC50 2.9, 15, 13, 39 uM); no Kd given; conditions: tags: GST; label: 3' T-fluorescein (position 5 of thymine, 6-carbon spacer)
[2] = molecular target: T2, hnRNP A18 (CIRP), full length, …; experiment: EMSA; 1 ug protein in 20 ul; competed by compounds 1-6; conditions: tags: His; label: 3' biotin
Procedure: RNA band shifts were performed according to the manufacturer recommendations (LightShift Chemiluminescent RNA EMSA kit, Thermo Scientific, Rockford, Ill.). Briefly recombinant His-hnRNP A18 or His-hnRNP A1 (1 μg) were incubated with biotinylated RNA (hnRNP A18 motif 1, IRE 28 or 51 nucleotides) in 20 μl and run on native polyacrylamide gels transfer to nylon probes and hybridize with streptavidin HRP antibody.

Binder | binding result [1] | binding result [2]
B1 | binds | –
B2 | – | binds
